Measured values reported in IntAct's records for PubMed 31515488.

B1: Scaffold protein ILK (Homo sapiens), Q13418 (parent)
chain: MDDIFTQCREGNAVAVRLWLDNTENDLNQGDDHGFSPLHWACREGRSAVVEMLIMRGARINVMNRGDDTPLHLAASHGHRDIVQKLLQYKADINAVNEHGNVPLHYACFWGQDQVAEDLVANGALVSICNKYGEMPVDKAKAPLRELLRERAEKMGQNLNRIPYKDTFWKGTTRTRPRNGTLNKHSGIDFKQLNFLTKLNENHSGELWKGRWQGNDIVVKVLKVRDWSTRKSRDFNEECPRLRIFSHPNVLPVLGACQSPPAPHPTLITHWMPYGSLYNVLHEGTNFVVDQSQAVKFALDMARGMAFLHTLEPLIPRHALNSRSVMIDEDMTARISMADVKFSFQCPGRMYAPAWVAPEALQKKPEDTNRRSADMWSFAVLLWELVTREVPFADLSNMEIGMKVALEGLRPTIPPGISPHVCKLMKICMNEDPAKRPKFDMIVPILEKMQDK
partner: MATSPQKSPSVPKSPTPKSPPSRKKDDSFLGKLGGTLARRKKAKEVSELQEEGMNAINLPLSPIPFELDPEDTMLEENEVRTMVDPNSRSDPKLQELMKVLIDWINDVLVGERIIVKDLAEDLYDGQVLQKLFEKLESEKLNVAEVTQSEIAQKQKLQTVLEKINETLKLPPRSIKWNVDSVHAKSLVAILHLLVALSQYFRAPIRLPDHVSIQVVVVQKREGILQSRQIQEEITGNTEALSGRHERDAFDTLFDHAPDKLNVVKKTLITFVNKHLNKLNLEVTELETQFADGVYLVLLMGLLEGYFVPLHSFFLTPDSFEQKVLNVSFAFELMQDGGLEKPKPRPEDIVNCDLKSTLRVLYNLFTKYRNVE
B2: Uncharacterized protein C3orf62 (Homo sapiens), Q6ZUJ4 (parent)
chain: MHYIKTWSLLGEMSEKLRRCRKELTAAIDRAFEGVSYSQECTGQQRLELSAAPLSFSLPVHRLLCRRHPLAACSSAAPFAAVPCAPENENPAFATNHAPVNAKPHALCPERKPLTSKENVLMHSSILAPERESWRTAGEGENWRKENLRKDMERDLKADSNMPLNNSSQEVTKDLLDMIDHTSIRTIEELAGKIEFENELNHMCGHCQDSPFKEEAWALLMDKSPQKATDADPGSLKQAFDDHNIVETVLDLEEDYNVMTSFKYQIE
B3: Protein boule-like (Homo sapiens), Q8N9W6 (parent)
chain: MQTDSLSPSPNPVSPVPLNNPTSAPRYGTVIPNRIFVGGIDFKTNESDLRKFFSQYGSVKEVKIVNDRAGVSKGYGFVTFETQEDAQKILQEAEKLNYKDKKLNIGPAIRKQQVGIPRSSIMPAAGTMYLTTSTGYPYTYHNGVAYFHTPEVTSVPPPWPSRSVCSSPVMVAQPIYQQPAYHYQATTQYLPGQWQWSVPQPSASSAPFLYLQPSEVIYQPVEIAQDGGCVPPPLSLMETSVPEPYSDHGVQATYHQVYAPSAITMPAPVMQPEPIKTVWSIHY
partner: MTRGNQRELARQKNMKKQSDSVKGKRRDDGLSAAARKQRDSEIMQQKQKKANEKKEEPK
B4: Sodium channel modifier 1 (Homo sapiens), Q9BWG6 (parent)
chain: MSFKREGDDWSQLNVLKKRRVGDLLASYIPEDEALMLRDGRFACAICPHRPVLDTLAMLTAHRAGKKHLSSLQLFYGKKQPGKERKQNPKHQNELRREETKAEAPLLTQTRLITQSALHRAPHYNSCCRRKYRPEAPGPSVSLSPMPPSEVKLQSGKISREPEPAAGPQAEESATVSAPAPMSPTRRRALDHYLTLRSSGWIPDGRGRWVKDENVEFDSDEEEPPDLPLD
partner: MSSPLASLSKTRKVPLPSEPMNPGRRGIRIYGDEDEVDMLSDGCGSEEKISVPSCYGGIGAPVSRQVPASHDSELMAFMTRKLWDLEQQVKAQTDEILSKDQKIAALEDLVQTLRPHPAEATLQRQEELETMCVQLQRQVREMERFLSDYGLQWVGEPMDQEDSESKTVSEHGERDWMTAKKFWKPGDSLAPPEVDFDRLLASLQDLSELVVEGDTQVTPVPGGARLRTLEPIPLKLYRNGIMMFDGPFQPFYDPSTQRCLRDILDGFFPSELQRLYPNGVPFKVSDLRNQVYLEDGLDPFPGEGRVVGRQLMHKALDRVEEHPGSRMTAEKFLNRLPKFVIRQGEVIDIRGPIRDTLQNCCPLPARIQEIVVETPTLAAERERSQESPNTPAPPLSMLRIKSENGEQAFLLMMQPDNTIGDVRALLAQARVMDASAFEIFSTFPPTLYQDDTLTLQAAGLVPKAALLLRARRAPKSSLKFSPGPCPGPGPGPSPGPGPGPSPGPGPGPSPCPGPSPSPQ
B5: Maspardin (Homo sapiens), Q9NZD8 (parent)
chain: MGEIKVSPDYNWFRGTVPLKKIIVDDDDSKIWSLYDAGPRSIRCPLIFLPPVSGTADVFFRQILALTGWGYRVIALQYPVYWDHLEFCDGFRKLLDHLQLDKVHLFGASLGGFLAQKFAEYTHKSPRVHSLILCNSFSDTSIFNQTWTANSFWLMPAFMLKKIVLGNFSSGPVDPMMADAIDFMVDRLESLGQSELASRLTLNCQNSYVEPHKIRDIPVTIMDVFDQSALSTEAKEEMYKLYPNARRAHLKTGGNFPYLCRSAEVNLYVQIHLLQFHGTKYAAIDPSMVSAEELEVQKGSLGISQEEQ
B6: Peroxisomal bifunctional enzyme (Homo sapiens), Q08426 (parent)
chain: MAEYTRLHNALALIRLRNPPVNAISTTLLRDIKEGLQKAVIDHTIKAIVICGAEGKFSAGADIRGFSAPRTFGLTLGHVVDEIQRNEKPVVAAIQGMAFGGGLELALGCHYRIAHAEAQVGLPEVTLGLLPGARGTQLLPRLTGVPAALDLITSGRRILADEALKLGILDKVVNSDPVEEAIRFAQRVSDQPLESRRLCNKPIQSLPNMDSIFSEALLKMRRQHPGCLAQEACVRAVQAAVQYPYEVGIKKEEELFLYLLQSGQARALQYAFFAERKANKWSTPSGASWKTASARPVSSVGVVGLGTMGRGIVISFARARIPVIAVDSDKNQLATANKMITSVLEKEASKMQQSGHPWSGPKPRLTSSVKELGGVDLVIEAVFEEMSLKKQVFAELSAVCKPEAFLCTNTSALDVDEIASSTDRPHLVIGTHFFSPAHVMKLLEVIPSQYSSPTTIATVMNLSKKIKKIGVVVGNCFGFVGNRMLNPYYNQAYFLLEEGSKPEEVDQVLEEFGFKMGPFRVSDLAGLDVGWKSRKGQGLTGPTLLPGTPARKRGNRRYCPIPDVLCELGRFGQKTGKGWYQYDKPLGRIHKPDPWLSKFLSRYRKTHHIEPRTISQDEILERCLYSLINEAFRILGEGIAASPEHIDVVYLHGYGWPRHKGGPMFYASTVGLPTVLEKLQKYYRQNPDIPQLEPSDYLKKLASQGNPPLKEWQSLAGSPSSKL

Variants of: B1
Settings: with parva_human PARVA

Variant | effect of a mutation on the interaction
R349H | disrupting interaction strength
Q362H | with no effect
M425I | with no effect

Variants of: B2
Settings: with mr1l1_human MRFAP1L1, Q96HT8
mr1l1_human MRFAP1L1, Q96HT8, sequence (Q96HT8 whole entry): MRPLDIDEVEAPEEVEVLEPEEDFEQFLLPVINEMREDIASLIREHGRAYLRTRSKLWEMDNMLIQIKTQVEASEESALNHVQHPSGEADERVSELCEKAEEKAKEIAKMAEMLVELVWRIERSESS

Variant | effect of a mutation on the interaction
V60M | with no effect
E110K | with no effect
N142D | with no effect
M203I | with no effect

Variants of: B3
Settings: with serf2_human SERF2, P84101

Variant | effect of a mutation on the interaction
S9Y | disrupting interaction strength
V78I | with no effect
M270I | with no effect

Variants of: B4
Settings: with ubx11_human UBXN11, Q5T124

Variant | effect of a mutation on the interaction
A174V | with no effect

Variants of: B5
Settings: with rtn4_human RTN4, Q9NQC3
rtn4_human RTN4, Q9NQC3, sequence (Q9NQC3 whole entry): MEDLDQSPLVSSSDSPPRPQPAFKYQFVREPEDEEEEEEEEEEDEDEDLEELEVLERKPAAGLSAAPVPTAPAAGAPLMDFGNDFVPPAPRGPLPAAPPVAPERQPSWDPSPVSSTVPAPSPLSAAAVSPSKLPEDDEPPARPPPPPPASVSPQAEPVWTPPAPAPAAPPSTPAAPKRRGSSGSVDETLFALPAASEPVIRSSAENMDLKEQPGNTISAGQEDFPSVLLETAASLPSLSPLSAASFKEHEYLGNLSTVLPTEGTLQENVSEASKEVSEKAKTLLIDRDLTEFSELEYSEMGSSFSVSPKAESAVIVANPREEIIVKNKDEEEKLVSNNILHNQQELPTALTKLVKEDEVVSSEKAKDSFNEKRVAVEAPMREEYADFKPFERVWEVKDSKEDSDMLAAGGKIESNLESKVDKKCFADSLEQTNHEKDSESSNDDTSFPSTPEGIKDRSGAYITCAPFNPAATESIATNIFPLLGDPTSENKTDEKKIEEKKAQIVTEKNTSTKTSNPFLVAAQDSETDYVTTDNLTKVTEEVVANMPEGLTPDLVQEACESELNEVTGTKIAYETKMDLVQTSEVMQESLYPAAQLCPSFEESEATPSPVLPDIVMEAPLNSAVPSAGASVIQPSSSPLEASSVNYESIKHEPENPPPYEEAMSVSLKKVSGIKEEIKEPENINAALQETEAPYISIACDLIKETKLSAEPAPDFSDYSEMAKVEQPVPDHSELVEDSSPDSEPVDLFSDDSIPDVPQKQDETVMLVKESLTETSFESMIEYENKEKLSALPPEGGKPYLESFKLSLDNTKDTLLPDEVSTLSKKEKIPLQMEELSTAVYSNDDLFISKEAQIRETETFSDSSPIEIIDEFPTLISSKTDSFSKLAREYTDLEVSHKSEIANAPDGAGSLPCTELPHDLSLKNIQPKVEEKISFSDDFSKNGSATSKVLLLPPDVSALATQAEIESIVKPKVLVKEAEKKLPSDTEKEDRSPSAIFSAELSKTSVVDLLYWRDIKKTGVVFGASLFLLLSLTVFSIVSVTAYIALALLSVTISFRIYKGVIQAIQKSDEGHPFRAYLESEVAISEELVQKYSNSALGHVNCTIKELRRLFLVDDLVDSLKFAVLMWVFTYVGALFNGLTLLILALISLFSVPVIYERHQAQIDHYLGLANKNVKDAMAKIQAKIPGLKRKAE

Variant | effect of a mutation on the interaction
A180T | with no effect

Variants of: B5
Settings: with cryaa_human CRYAA

Variant | effect of a mutation on the interaction
A180T | disrupting interaction strength
H272D | disrupting interaction strength

Variants of: B5
Settings: with reep6_human REEP6, Q96HR9
reep6_human REEP6, Q96HR9, sequence (Q96HR9 whole entry): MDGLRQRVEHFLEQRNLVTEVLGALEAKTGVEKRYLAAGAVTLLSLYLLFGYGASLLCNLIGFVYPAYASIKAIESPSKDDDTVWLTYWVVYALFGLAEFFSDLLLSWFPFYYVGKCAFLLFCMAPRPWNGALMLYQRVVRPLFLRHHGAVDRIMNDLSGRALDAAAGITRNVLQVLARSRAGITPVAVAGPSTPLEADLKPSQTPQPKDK

Variant | effect of a mutation on the interaction
A180T | with no effect

Variants of: B5
Settings: with traf2_human TRAF2, Q12933
traf2_human TRAF2, Q12933, sequence (Q12933 whole entry): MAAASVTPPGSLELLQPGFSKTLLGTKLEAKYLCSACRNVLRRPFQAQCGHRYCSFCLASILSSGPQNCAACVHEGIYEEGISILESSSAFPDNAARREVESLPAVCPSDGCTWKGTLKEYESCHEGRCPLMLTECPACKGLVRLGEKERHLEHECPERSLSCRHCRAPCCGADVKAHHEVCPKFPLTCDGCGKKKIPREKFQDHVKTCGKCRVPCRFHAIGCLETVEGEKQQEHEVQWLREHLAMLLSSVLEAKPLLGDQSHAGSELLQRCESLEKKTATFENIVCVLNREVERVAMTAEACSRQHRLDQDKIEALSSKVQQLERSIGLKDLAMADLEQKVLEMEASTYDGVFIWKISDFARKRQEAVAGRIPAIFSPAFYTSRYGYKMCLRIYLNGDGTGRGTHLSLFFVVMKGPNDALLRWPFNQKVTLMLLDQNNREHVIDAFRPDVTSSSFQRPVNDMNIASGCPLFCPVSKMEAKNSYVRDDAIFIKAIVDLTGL

Variant | effect of a mutation on the interaction
A180T | with no effect
H272D | disrupting interaction strength

Variants of: B5
Settings: with spre2_human SPRED2, Q7Z698
spre2_human SPRED2, Q7Z698, sequence (Q7Z698 whole entry): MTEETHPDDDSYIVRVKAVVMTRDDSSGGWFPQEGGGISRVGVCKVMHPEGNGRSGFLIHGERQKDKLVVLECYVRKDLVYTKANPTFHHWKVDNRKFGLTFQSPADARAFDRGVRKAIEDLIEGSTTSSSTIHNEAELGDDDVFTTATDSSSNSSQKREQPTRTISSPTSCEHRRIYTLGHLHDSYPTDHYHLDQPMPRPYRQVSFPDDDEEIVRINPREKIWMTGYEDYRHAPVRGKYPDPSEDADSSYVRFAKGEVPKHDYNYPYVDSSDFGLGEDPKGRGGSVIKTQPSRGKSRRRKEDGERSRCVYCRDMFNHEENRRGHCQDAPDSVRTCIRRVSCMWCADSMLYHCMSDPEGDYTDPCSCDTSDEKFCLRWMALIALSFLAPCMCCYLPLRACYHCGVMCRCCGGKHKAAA

Variant | effect of a mutation on the interaction
A180T | with no effect

Variants of: B5
Settings: with htf4_human TCF12, Q99081
htf4_human TCF12, Q99081, sequence (Q99081 whole entry): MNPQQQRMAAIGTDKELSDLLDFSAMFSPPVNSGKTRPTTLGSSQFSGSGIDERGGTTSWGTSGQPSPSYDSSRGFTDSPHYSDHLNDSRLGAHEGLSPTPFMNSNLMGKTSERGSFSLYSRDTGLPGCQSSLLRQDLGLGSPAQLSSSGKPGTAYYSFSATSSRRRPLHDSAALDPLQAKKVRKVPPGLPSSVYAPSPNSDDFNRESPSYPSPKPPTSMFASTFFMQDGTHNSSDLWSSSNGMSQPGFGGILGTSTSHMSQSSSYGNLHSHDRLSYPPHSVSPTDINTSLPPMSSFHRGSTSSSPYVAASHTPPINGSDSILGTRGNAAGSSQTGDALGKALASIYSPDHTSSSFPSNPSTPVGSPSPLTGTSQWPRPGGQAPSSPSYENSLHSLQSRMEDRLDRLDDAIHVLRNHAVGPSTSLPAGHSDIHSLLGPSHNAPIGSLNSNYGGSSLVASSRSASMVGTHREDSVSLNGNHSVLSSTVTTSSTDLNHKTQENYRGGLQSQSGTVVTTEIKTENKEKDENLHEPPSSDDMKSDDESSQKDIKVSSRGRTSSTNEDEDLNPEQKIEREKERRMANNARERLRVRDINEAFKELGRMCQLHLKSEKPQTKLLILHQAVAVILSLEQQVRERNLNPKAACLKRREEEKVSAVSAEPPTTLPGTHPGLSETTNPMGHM

Variant | effect of a mutation on the interaction
A180T | with no effect
H272D | disrupting interaction strength

Variants of: B5
Settings: with atrap_human AGTRAP

Variant | effect of a mutation on the interaction
A180T | with no effect

Variants of: B5
Settings: with akir2_human AKIRIN2, Q53H80
akir2_human AKIRIN2, Q53H80, sequence (Q53H80 whole entry): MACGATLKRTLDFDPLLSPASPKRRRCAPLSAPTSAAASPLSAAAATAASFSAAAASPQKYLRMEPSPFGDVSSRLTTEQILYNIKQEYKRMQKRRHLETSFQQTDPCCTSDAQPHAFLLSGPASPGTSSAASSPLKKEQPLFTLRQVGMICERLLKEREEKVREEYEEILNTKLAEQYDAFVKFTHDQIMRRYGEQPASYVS

Variant | effect of a mutation on the interaction
A180T | with no effect

Variants of: B6
Settings: with tpp2_human TPP2, P29144

Variant | effect of a mutation on the interaction
R483Q | disrupting interaction strength

Variants of: B6
Settings: with actb_human ACTB

Variant | effect of a mutation on the interaction
R483Q | disrupting interaction strength

Variants of: B6
Settings: with actg_human ACTG1, P63261

Variant | effect of a mutation on the interaction
R483Q | disrupting interaction strength

Variants of: B6
Settings: with tnip1_human TNIP1, Q15025
tnip1_human TNIP1, Q15025, sequence (Q15025 whole entry): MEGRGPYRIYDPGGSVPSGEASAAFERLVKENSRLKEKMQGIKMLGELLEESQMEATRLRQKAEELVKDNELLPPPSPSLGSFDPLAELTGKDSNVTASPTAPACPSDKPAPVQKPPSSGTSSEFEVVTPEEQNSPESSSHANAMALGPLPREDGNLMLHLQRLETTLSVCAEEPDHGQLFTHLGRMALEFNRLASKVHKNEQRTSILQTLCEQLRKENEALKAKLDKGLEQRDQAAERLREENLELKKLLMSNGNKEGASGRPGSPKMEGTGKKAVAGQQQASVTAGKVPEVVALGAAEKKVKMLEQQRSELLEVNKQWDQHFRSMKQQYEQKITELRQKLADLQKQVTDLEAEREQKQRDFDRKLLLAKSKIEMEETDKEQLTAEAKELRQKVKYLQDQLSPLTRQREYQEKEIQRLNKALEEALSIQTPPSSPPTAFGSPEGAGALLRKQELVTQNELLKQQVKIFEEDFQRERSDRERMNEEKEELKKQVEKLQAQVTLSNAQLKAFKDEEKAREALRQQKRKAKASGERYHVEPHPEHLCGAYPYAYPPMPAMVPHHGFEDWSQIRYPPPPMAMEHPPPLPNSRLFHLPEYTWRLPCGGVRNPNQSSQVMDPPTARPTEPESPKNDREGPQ

Variant | effect of a mutation on the interaction
R483Q | with no effect
